Measured values taken from patent US20200385439A1.
Ends that are not written are not given here.

Assays:
Assay in all cases: cell-based or functional assay
[1] = molecular target: mouse glucagon receptor (mouse) (UniProt Q61606)
[2] = molecular target: rat glucagon receptor (rat) (UniProt P30082)
[3] = molecular target: cynomolgus monkey glucagon receptor (cynomolgus monkey)
[4] = molecular target: mouse GLP1 receptor (mouse) (UniProt O35659)
[5] = molecular target: human glucagon receptor (human) (UniProt P47871)
Sequence of human glucagon receptor (human) (P47871 26-477): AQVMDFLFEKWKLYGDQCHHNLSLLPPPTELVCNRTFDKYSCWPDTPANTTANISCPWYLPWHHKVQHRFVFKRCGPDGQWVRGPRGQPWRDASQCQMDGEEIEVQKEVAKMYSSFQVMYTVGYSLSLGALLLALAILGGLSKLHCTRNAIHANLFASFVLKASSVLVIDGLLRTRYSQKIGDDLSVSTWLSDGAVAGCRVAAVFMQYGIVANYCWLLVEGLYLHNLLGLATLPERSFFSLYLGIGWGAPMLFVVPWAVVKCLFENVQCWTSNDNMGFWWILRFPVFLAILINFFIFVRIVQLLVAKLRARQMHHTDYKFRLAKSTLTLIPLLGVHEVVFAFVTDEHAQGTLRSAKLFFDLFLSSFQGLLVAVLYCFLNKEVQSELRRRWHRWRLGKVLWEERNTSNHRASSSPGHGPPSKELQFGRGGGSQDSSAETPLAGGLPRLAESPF

[6] = molecular target: human Y1 receptor (human) (UniProt P25929)
Sequence of human Y1 receptor (human) (P25929 whole entry): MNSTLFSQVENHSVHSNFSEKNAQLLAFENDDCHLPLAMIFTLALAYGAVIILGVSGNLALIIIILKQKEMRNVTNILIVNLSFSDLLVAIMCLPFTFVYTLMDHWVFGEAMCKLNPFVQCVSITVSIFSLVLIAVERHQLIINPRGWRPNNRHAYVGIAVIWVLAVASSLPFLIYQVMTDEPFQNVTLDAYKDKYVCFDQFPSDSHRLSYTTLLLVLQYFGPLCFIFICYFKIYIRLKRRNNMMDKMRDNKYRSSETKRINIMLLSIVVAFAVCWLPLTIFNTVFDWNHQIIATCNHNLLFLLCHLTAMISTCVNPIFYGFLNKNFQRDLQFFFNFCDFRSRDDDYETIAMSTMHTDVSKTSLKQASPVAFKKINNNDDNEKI

[7] = molecular target: mouse Y2 receptor (mouse) (UniProt P97295)
Sequence of mouse Y2 receptor (mouse) (P97295 whole entry): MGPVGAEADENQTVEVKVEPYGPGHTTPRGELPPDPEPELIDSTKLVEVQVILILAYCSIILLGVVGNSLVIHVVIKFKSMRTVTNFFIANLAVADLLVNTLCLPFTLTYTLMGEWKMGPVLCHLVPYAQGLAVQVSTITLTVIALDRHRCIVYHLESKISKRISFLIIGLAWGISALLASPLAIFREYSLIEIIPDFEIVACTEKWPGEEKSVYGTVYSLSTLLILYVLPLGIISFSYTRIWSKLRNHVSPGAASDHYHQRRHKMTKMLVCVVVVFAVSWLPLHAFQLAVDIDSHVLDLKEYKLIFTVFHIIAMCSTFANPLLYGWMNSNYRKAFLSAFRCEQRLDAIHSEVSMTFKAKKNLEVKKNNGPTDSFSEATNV

[8] = molecular target: rhesus monkey Y2 receptor (rhesus monkey) (UniProt Q9GK74)
Sequence of rhesus monkey Y2 receptor (rhesus monkey) (Q9GK74 whole entry): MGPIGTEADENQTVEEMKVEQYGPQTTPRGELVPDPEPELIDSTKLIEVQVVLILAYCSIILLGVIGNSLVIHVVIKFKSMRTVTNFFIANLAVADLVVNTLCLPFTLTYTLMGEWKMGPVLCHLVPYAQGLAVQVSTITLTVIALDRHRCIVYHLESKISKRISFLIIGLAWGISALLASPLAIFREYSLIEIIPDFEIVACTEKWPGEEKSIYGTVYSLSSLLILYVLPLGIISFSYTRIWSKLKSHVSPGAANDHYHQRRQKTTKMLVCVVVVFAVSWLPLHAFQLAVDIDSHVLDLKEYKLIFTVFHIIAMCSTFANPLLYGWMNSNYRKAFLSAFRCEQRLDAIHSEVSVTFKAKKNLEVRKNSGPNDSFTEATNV

[9] = molecular target: CRHR2
[10] = molecular target: CRHR1
[11] = molecular target: cynomolgus monkey GLP1 receptor (cynomolgus monkey) (UniProt F8V479)
[12] = molecular target: T1, CALCR
T1 sequence (P30988 1-474, species assumed, looked up): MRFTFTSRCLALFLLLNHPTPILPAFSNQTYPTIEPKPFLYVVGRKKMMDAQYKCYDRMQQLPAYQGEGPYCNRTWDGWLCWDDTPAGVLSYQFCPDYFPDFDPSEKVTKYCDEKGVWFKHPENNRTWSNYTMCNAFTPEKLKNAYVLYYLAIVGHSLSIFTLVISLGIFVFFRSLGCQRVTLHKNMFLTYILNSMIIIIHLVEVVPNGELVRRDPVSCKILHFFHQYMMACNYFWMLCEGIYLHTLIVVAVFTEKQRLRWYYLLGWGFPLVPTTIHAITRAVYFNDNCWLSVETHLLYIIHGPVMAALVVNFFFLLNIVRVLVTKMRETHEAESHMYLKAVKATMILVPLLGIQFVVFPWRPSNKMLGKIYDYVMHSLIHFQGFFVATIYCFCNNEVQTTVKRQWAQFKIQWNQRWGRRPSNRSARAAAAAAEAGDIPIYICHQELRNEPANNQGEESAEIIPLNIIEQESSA

Sequence of Dulaglutide (Fc fusion) (chain): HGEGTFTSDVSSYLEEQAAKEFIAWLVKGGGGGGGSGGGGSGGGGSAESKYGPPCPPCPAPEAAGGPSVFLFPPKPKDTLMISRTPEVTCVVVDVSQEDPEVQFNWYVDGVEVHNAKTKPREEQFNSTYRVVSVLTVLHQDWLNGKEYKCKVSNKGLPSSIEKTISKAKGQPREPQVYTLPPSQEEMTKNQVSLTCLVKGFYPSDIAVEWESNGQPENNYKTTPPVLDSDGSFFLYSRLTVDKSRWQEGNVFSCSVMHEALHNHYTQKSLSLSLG
Sequence of mouse glucagon receptor (mouse) (Q61606 27-485): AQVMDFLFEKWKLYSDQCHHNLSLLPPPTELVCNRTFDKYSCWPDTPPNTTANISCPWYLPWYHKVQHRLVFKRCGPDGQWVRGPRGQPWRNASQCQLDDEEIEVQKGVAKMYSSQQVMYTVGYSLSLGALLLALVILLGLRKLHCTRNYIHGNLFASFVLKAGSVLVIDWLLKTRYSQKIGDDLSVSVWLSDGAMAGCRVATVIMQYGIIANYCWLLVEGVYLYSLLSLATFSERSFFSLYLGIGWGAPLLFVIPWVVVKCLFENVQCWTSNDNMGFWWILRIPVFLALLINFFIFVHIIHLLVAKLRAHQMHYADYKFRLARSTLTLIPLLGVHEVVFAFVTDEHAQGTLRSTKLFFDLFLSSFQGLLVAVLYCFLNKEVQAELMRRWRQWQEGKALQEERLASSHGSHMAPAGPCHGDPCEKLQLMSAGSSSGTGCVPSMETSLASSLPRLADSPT
Sequence of mouse GLP1 receptor (mouse) (O35659 22-463): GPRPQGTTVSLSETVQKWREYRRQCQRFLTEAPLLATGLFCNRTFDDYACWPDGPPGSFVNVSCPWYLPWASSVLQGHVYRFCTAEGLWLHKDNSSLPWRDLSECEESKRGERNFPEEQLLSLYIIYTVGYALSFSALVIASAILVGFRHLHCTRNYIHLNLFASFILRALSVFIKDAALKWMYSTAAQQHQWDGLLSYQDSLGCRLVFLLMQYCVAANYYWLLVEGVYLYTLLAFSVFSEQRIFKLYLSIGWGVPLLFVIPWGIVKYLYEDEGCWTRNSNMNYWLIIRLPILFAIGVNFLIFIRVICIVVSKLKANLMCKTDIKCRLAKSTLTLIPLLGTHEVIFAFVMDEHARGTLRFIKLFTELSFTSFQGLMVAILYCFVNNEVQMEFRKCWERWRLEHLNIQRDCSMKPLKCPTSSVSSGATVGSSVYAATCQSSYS
Sequence of rat glucagon receptor (rat) (P30082 27-485): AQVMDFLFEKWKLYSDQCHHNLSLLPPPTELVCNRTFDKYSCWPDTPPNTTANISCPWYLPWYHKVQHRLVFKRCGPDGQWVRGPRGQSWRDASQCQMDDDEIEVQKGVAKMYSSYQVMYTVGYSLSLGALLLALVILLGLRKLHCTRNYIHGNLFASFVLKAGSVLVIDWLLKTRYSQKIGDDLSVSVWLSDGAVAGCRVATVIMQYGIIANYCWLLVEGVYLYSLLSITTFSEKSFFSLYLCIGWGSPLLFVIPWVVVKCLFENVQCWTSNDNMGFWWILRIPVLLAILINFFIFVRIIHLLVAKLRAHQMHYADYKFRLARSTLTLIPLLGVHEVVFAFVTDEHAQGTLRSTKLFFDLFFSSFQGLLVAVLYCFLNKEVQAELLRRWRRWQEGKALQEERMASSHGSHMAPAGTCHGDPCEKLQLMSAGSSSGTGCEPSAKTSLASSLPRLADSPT

Work on Dulaglutide (Fc fusion) yielded an EC50, receptor cAMP assay [1] greater than 100 nM, an EC50, receptor cAMP assay [2] greater than 100 nM and an EC50, receptor cAMP assay [3] greater than 100 nM. It also gave an EC50, receptor cAMP assay [4] of 0.035 nM and an EC50, receptor cAMP assay [5] greater than 100 nM.

Molecule “PYY3-36 (from UniProt P10082 31-64) (peptide)” has an EC50, cAMP assay (LANCE) on receptor-expressing cells [6] of 66.4 nM, an EC50, cAMP assay (LANCE) on receptor-expressing cells [7] of 0.03 nM and an EC50, cAMP assay (LANCE) on receptor-expressing cells [8] of 0.06 nM.

For Sauvagine (peptide), the RC50, cAMP assay [9] was 0.0034 µM and the RC50, cAMP assay [10] was 0.000308 µM.

Sauvagine (peptide; unit assumed) showed a Max response, cAMP assay [9] of 107% and a Max response, cAMP assay [10] of 106%.

In the case of “Ser-8 GLP1 (from UniProt P01275 98-127) (peptide)”, the EC50, receptor cAMP assay [1] is reported as greater than 100 nM, the EC50, receptor cAMP assay [2] is reported as greater than 100 nM and the EC50, receptor cAMP assay [3] is reported as greater than 100 nM. For the same molecule, the EC50, receptor cAMP assay [4] was 0.06 nM and the EC50, receptor cAMP assay [11] was 0.08 nM.

In the case of CGNLSTCMLGTYTQDFNKFHTFPQTAIGVGAP (peptide, UniProt P01258 85-116, looked up, species assumed, ends and bridges not checked; cysteine pairing not given here) [Calcitonin], the Max response, cAMP assay [12] is reported as 101% and the RC50, cAMP assay [12] is reported as 0.000776 µM.
